We go through two molecules from patent publication US20120108797A1 (AstraZeneca / MedImmune, published 2012).

For experiment [1], the target named is T1, cynomolgus monkey uPAR, cell-bound (cynomolgus monkey, UniProt Q9GK78 23-305).
T1 construct: whole, on cells; also called cyno-uPAR; uPAR on CHOK1 or 293T transfectants
As to the kind of experiment: FACS on 293T cells expressing cynomolgus uPAR, GeoMean of the peak shift.

For experiment [2], the target named is T2, human urokinase-type plasminogen activator receptor (uPAR), cell-bound (human, UniProt Q03405 23-305).
T2 construct: whole, on cells; Full length cDNA expressed on B300.19 and L929 transfectants; endogenous on U937 (and PC-3 used as positive control cells); also called hu-uPAR
T2 sequence (Q03405 23-305): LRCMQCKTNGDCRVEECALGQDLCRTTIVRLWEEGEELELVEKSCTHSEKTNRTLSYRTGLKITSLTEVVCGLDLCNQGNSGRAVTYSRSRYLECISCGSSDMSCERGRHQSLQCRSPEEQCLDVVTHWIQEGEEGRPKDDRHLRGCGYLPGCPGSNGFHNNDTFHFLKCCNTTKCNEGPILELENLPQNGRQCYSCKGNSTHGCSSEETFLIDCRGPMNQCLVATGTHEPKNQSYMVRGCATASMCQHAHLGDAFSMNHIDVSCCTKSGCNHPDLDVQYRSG
As to the kind of experiment: FACS, B300.19/hu-uPAR cells. In general terms: A flow cytometer gives signals particle by particle.
Procedure: Binding of the antibodies to cell-bound uPAR was tested with the murine pre-B cell line B300.19 (ATCC) transfected to express human uPAR, and B300.19 parental cells as a control, using Fluorometric Microvolume Assay Technology (FMAT). 5,000 cells/well were employed for the assay. […] The bound antibodies were detected using goat anti-human IgG Cy5 conjugate at 400 ng/ml (goat anti-mouse IgG Cy5 conjugate for mouse antibody control). […] For each dye stained, the ratio of the GeoMean values between positive and negative cells were tabulated.

T1 sequence (Q9GK78 23-305): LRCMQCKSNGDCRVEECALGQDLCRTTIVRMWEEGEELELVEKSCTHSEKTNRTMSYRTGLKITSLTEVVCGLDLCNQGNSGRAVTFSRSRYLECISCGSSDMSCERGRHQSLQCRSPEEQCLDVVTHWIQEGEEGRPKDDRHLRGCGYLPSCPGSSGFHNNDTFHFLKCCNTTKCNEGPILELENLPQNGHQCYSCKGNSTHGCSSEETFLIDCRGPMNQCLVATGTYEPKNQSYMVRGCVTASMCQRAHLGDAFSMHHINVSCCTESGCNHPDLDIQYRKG

B1: 3.8.3 (antibody, V domains shown)
VH: EVQLVESGGGLVQPGGSLRLSCAASGFTFSSYWMSWVRQAPGKGLEWVANIKQHGSEKYYVDSVKGRFTISRDNAKNSLYLQMNSLRAEDTAVYYCAREEAYYYDNSGYYWYFDLWARGTLVTVSS
VL: DIQMTQSPSSVSASIGDRVTITCRASQGISSWLAWYQQKPGKTPKLLIYAASSLQSGVPSRFSGSGSGTDFTLTISSLQPEDFATYYCQQADSFPWTFGQGTKVEIK
notes: Variable domains only; gamma 2 by chain name, kappa; also called 3.8.3g2; 3.8.3k
B1: the binding result in experiment [1] was “binds”.

B2: 4.13.2 (antibody, V domains shown)
VH: EVQLLESGGGLVQPGGSLRLSCAASGFTFSSYAMSWVRQAPGKGLEWVLGISGSGGSTYYADSVKGRFTISRDNSKNTLYLQMNSLRAEDTAVYYCAKDGYGDYVGWYFDLWGRGTLVTVSS
VL: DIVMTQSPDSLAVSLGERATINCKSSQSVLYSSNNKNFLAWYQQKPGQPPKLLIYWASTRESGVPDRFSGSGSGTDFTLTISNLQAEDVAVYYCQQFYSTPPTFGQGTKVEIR
notes: Variable domains only; gamma 4 by chain name, kappa; also called 4.13.1; 4.13.1g4
Turning to B2, in experiment [2], the “gCy5 Geo Mean Pos Cells” value came out at 282.
